Data reported in patent publication US20240325557A1 (INNATE PHARMA, published 2024).

Tests used:
[1] = molecular target: T1, huNectin4-C1C2-V5 (C1C2 construct, lacking the Ig-like V domain) (human, UniProt Q96NY8 148-510); assay: flow cytometry on Nectin4-C1C2-V5 sorted cells
T1 construct: Expressed on CHO cells; also called Hu-Nectin4 IgC1C2-V5; Nectin4-C1C2-V5 sorted cells
T1 sequence: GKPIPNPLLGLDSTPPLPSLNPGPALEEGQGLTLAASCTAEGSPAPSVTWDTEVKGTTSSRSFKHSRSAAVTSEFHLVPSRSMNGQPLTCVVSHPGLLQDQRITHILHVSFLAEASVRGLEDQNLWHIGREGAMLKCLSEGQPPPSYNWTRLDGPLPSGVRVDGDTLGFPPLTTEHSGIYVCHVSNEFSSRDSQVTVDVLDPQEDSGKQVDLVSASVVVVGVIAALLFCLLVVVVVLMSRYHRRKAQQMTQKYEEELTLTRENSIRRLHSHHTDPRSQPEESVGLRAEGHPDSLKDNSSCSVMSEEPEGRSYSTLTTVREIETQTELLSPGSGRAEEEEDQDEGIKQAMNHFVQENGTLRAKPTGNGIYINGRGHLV

human PVR on CHO cells = molecular target: T2, human PVR on CHO cells (human, UniProt P15151 28-417); assay: flow cytometry on CHO cells expressing human PVR
T2 construct: also called PVR (Nectin-5)
T2 sequence: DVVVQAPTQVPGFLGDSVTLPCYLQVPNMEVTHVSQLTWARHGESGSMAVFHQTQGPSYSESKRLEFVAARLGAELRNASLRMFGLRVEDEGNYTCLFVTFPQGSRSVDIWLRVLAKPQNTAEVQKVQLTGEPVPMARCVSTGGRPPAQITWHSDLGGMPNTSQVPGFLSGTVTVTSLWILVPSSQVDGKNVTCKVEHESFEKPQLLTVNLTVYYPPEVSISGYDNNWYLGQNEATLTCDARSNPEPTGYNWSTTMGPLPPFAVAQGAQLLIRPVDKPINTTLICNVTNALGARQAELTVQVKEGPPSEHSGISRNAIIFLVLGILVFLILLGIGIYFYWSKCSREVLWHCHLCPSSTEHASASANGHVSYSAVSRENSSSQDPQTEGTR
Protocol: (§1) Anti-Nectin-4 antibodies were tested by flow cytometry for binding to different CHO cell lines made to express respectively the human Nectin 1, Nectin 2, Nectin 3 and PVR proteins. The expression of each cell lines was controlled and validated with known respectively the anti-human Nectin1, anti-human Nectin2, anti-human Nectin3 and anti-human PVR antibodies. The mature amino acid sequence of the proteins expressed by the cells were as follows:
(§2) Nectin 1, Nectin 2, Nectin 3 and PVR proteins as in Example 12. […] Epitope mapping was carried out by assessing competition for binding to Nectin-4 by SPR as in Example 14.

[2] = molecular target: T3, wild-type human Nectin-4 on the CHO huNectin4 Cl.3C8 cell line (human, UniProt Q96NY8 32-510); assay: flow cytometry on wild-type human Nectin-4 cell line
T3 construct: also called whole Nectin-4 protein; huNectin4 CI.3C8
T3 sequence: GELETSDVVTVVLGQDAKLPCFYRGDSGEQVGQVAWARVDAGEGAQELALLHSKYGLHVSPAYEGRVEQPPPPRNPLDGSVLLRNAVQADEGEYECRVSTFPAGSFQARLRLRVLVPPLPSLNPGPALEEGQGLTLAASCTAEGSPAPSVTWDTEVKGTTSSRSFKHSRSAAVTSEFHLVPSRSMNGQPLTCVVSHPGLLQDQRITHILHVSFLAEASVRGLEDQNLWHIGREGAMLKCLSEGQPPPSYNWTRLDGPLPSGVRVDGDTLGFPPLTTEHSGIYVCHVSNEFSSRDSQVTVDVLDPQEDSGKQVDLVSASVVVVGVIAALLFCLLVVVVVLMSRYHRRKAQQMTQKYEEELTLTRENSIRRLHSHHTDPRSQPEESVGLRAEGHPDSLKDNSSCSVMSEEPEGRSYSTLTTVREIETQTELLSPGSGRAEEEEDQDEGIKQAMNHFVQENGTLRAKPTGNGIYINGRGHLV

[3] = molecular target: T4, human Nectin 2 on CHO cells (human, UniProt Q92692 32-538); assay: flow cytometry on CHO cells expressing human Nectin 2
T4 sequence: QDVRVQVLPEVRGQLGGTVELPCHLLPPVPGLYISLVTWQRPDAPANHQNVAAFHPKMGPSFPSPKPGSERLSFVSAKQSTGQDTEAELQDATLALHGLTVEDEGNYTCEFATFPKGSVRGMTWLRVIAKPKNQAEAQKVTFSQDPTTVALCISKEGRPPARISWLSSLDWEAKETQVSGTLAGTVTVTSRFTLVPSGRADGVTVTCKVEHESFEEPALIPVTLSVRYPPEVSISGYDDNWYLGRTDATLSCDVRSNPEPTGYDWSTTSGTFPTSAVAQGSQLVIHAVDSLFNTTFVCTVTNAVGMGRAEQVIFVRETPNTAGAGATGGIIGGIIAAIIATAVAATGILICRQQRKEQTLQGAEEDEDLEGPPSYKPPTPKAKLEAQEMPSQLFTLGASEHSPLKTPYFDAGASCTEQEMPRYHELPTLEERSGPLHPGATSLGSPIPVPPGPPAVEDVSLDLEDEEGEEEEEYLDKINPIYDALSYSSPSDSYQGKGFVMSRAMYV
Protocol: as §1, §2

[4] = molecular target: T5, human Nectin-4 Mutant 7bis (human, UniProt Q96NY8 32-510); assay: binding to HEK-293T cells transfected with the Nectin-4 mutant
T5 construct: Expressed on transfected HEK-293T cells; also called A72P/G73N/K197T/S199A
T5 chain: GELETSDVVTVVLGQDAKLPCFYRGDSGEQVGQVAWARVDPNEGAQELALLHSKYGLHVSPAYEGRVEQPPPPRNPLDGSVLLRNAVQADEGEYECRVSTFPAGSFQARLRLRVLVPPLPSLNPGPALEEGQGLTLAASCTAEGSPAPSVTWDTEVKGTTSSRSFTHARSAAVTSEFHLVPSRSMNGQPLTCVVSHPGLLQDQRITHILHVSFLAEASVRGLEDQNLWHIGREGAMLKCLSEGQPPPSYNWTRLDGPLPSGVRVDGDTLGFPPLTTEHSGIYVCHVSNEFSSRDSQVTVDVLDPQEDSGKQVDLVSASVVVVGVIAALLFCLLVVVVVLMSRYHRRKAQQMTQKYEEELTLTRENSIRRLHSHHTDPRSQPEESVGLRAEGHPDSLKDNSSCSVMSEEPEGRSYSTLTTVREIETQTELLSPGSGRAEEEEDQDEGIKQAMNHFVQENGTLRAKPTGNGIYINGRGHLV

B1: antibody 6A7 (antibody, human IgG1, V domains shown)
VH: QVQLKESGAELVKPGASVKLSCKASGYTFTSYWMHWVKQRPGHGLEWVGEIDPSDSYTNYNQKFKGKATLTIDKSSSTVYMQLSSLTSEDSAVYYCARSGNYDAMDYWGQGTSVTVSA
VL: DIVMTQAAFSSAVTLGTSASISCRSSKSLLHSNGITYLYWYLQKPGQSPHFLIYQMSNLASGVPDRFTSSGSGTDFTLRISRVEAEDVGVYYCAQNLELPWTFGGGTKLEIK
notes: also called CHG1-M-4N4-6A7
binding result [1]: binds
binding result (human PVR on CHO cells): no binding
binding result [2]: binds
binding result [3]: no binding
binding result [4]: no binding
